According to PMC2172055 (The Journal of Cell Biology, 2004):

B1: SRα (natural protein)
chain: MLDFFTIFSKGGLVLWCFQGVSDSCTGPVNALIRSVLLQERGGNNSFTHEALTLKYKLDNQFELVFVVGFQKILTLTYVDKLIDDVHRLFRDKYRTEIQQQSALSLLNGTFDFQNDFLRLLREREESSKIRAPTTMKKFEDSEKAKKPVRSMIETRGEKPKEKAKNSKKKGAKKESSDGPLATGKAVPAEKSGLPAGPENGVELSKEELIRRKREEFIQKHGRGLEKSSKSTKSDAPKEKGKKAPRVWALGGCANKEVLDYSAPTTNGAPDAAPPEDINLIRGTGPGGQLQDLDCSSSDDEETAQNASKPSATKGTLGGMFGMLKGLVGSKSLSREDMESVLDKMRDHLIAKNVAADIAVQLCESVANKLEGKVMGTFSTVTSTVKQALQESLVQILQPQRRVDMLRDIMDAQRHQRPYVVTFCGVNGVGKSTNLAKISFWLLENGFSVLIAACDTFRAGAVEHVRTHTRRLSALHPPEKHAGPTMVQLFEKGYGKDAAGIAMEAIAFARNQGFDVVLVDTAGRMQDNAPLMTALAKLITVNTPDLVLFVGEALVGNEAVDQLVKFNRALADHSMAQTPRLIDGIVLTKFDTIDDKVGAAISMTYITSKPIVFVGTGQTYCDLRSLNAKAVVAALMKA
B2: TRAPα (natural protein)
chain: GPGGSLVAAQDLTEDEETVEDSIIEDEDDEAEVEEDEPTDLAEDKEEEDVSGEPEASPSADTTILFVKGEDFPANNIVKFLVGFTNKGTEDFIVESLDASFRYPQDYQFYIQNFTALPLNTVVPPQRQATFEYSFIPAEPMGGRPFGLVINLNYKDLNGNVFQDAVFNQTVTIIEREDGLDGETIFMYMFLAGLGLLVVVGLHQLLESRKRKRPIQKVEMGTSSQNDVDMSWIPQETLNQINKASPRRLPRKRAQKRSVGSDE
B3: TRAM (natural protein)
chain: MAIRKKSTKSPPVLSHEFILQNHADIVSCVAMVFLLGLMFEITAKASIIFVTLQYNVTLPATEEQATESTSLYYYGIKDLATVFFYMLVAIIIHAIIQEYVLDKINRRMHFSKTKHSKFNESGQLSAFYLFSCIWGTFILISENYISDPTILWRAYPHNLMTFQMKFFYIAQLAYWFHAFPELYFQKTKKEDIPRQLVYIGLYLFHIAGAYLLNLNHLGLVLLVLHYFVEFLFHISRLFYFSDEKYQKGFSLWAVLFVLGRLLTLILSVLTVGFGLARAENQKLDFSAGNFNVLAVRIAVLASICITQAFMMWKFINFQLRRWREHSTFQAPVVKKKPTVTKGRSSRKGTENGVNGTVTSNGADSPRNRKEKSS

Columns and labels:
Sec61β = Sec61β (canine (endogenous in MDCK), UniProt P60467 1-96); assay: FRET or BRET
Sec61α = Sec61α (canine (endogenous in MDCK), UniProt P38377 1-476); assay: FRET or BRET
Sec61α, sequence (P38377 whole entry): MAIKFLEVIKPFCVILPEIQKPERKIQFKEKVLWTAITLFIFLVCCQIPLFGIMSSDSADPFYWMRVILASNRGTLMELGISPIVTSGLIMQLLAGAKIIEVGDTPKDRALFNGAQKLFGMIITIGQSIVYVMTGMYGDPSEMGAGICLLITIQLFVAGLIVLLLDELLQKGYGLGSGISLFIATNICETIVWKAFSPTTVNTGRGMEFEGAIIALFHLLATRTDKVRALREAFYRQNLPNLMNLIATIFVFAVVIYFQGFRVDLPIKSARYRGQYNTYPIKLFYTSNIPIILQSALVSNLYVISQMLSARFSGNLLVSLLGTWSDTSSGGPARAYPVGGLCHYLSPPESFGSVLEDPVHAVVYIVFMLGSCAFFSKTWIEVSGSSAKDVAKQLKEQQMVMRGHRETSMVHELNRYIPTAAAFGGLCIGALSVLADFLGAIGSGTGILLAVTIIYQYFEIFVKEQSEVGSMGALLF

Sec61β, sequence (P60467 whole entry): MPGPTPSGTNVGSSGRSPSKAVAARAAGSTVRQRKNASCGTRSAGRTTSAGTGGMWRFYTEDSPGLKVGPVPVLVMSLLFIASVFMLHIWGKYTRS

| Binder | FRET efficiency (pactamycin-treated cells) (Sec61β) | FRET efficiency (puromycin-treated cells) (Sec61β) | FRET efficiency (untreated cells) (Sec61β) | FRET efficiency (pactamycin-treated cells) (Sec61α) | FRET efficiency (puromycin-treated cells) (Sec61α) | FRET efficiency (untreated cells) (Sec61α) |
| --- | --- | --- | --- | --- | --- | --- |
| B1 | 18.8% | 17.2% | 16% | 32.2% | 31.6% | 34.1% |
| B2 | 11.8% | 11.1% | 13.6% | 15.2% | 13.6% | 18.4% |
| B3 | 10.4% | 11.9% | 12.8% | 19.7% | 19.8% | 17.6% |
